Test results published in publication PMC12784962, “https://orcid.org/0000-0002-3633-7823 Baral Joydeep Department of Bioscience and Biotechnology, Indian Institute of Technology Kharagpur, West Midnapore 721302, West Bengal, India”.

Target: the molecule itself
Test: cryo-EM structure; monomer to monomer within the homodimer; 5 µM mKu dimer with equimolar 40-bp linear dsDNA or short hairpin DNA, 30 min at 4°C

B1: mycobacterial Ku (mKu), Mycobacterium tuberculosis, wild type (natural protein)
chain: MRAIWTGSIAFGLVNVPVKVYSATADHDIRFHQVHAKDNGRIRYKRVCEACGEVVDYRDLARAYESGDGQMVAITDDDIASLPEERSREIEVLEFVPAADVDPMMFDRSYFLEPDSKSSKSYVLLAKTLAETDRMAIVHFTLRNKTRLAALRVKDFGKREVMMVHTLLWPDEIRDPDFPVLDQKVEIKPAELKMAGQVVDSMADDFNPDRYHDTYQEQLQELIDTKLEGGQAFTAEDQPRLLDEPEDVSDLLAKLEASVKARSKANSNVPTPP
notes: Ku protein of Mycobacterium tuberculosis, gene Rv0937c, 31 kDa; the C-terminal 46 residues are not seen in the maps; also called mKu WT; mKu-WT
  binding result: binds
